B2: biotin-MBP-Atf7IP(574–666) (domain or fragment, human, UniProt Q6VMQ6 574-666, looked up)
chain: EEEYEAEFQVKITAKGDINQKLQKVIQWLLEEKLCALQCAVFDKTLAELKTRVEKIECNKRHKTVLTELQAKIARLTKRFEAAKEDLKKRHEH
modifications: biotin (on the Avi-tag)
notes: also called AviTag-MBP-Atf7IP; source: E. coli, co-expressed with birA with 40μM biotin, purified (MBPTrap, Superdex 200); not shown: AviTag, N-terminal, kept; MBP, N-terminal, kept

Data set [1] concerns the target B2. The data set is described as follows: AlphaScreen or HTRF; His-sumo-Setdb1 on nickel chelate acceptor beads, biotin-MBP-Atf7IP(574–666) on streptavidin donor beads; 20nM each, or one at 20nM and the other 0–20nM; 50mM MOPS, 50mM CHAPS, 50mM NaF, 100μg/ml BSA, pH7; room temperature. The conditions noted are these: both partners purified.
The target of a further data set is T1, GST-Setdb1(2–115) (human, UniProt Q15047 2-115).
T1 construct: also called GST-Setdb1(2–114); source: E. coli, purified (GSTTrap, Superdex 200); not shown: GST, N-terminal, kept
The data set is described as follows: pull-down; 0.5 μM GST fusion on glutathione Sepharose beads; 1.5 μM hCRM1 with or without 4.5 μM Ran^GTP; MBP-Atf7IP(574–666) pre-incubated at 3-fold or 15-fold excess; TB buffer (20mM HEPES 7.4, 110mM potassium acetate, 2mM magnesium acetate, 10% glycerol, 2mM DTT, 0.005% Tween20); Coomassie SDS-PAGE. The conditions noted are these: both partners purified.

Data set [2] deals with the molecule itself. The data set is described as follows: SEC; isolated MBP-Atf7IP(574–666), gel filtration with and without Tween 20. (In general: In gel filtration, larger molecules generally elute earlier.)
The target of a further data set is T2, His-sumo-Setdb1(2–115) (human, UniProt Q15047 2-115).
T2 construct: source: E. coli (BL21DE3 or Rosetta2), purified (HisTrap, dialysis); not shown: His6, N-terminal, kept; SUMO, N-terminal, kept
The data set is described as follows: AlphaScreen or HTRF; His-sumo-Setdb1 on nickel chelate acceptor beads, biotin-MBP-Atf7IP(574–666) on streptavidin donor beads; 20nM each, or one at 20nM and the other 0–20nM; 50mM MOPS, 50mM CHAPS, 50mM NaF, 100μg/ml BSA, pH7; room temperature. Particulars: both partners purified. A general note: Bead proximity is the source of the signal in Alpha formats.

Another data set concerns the target T3, MBP-Setdb1(2–115) (human, UniProt Q15047 2-115).
T3 construct: Printed mass 56.7 kDa; also called MBP-Setdb1(2–114); source: E. coli, co-expressed with its partners; complex purified (MBPTrap, Superdex 200); not shown: MBP, N-terminal, kept
The data set is described as follows: SEC-MALS; co-expressed complex purified by MBP affinity; Superdex 200 Increase 10/300 GL; about 400 μL at ~1 mg/mL. The conditions noted are these: both partners purified.

Data set [3] deals with the molecule itself. The data set can be described thus: native MS; co-expressed complex purified, exchanged into 400 mM ammonium acetate pH 7.9, 1 mM DTT; 500 nM; HCD 220 V for fragments.
Data set [4] deals with the molecule itself. The data set can be described thus: cross-linking; MBP-Atf7IP(574–666) C608S C612S in isolation, purified on amylose beads, non-reducing; SDS-PAGE with and without BME.

B1: 6Xhis-SUMO-Setdb1(Δα1; residues 35–114) (domain or fragment, human, UniProt Q15047 35-114, looked up)
chain: ISMEELRHFIDEELEKMDCVQQRKKQLAELETWVIQKESEVAHVDQLFDDASRAVTNCESLVKDFYSKLGLQYRDSSSED
notes: Setdb1, human, UniProt Q15047, residues 35–114 (helix α1 with NES#1 removed); source: E. coli (BL21DE3 or Rosetta2), purified (HisTrap, dialysis); not shown: His6, N-terminal, kept; SUMO, N-terminal, kept
For the molecule B1, the “binding as percent of WT” value in data set [1] was ~80 % of WT.
For B2, the binding result (with GST-Setdb1(2–115); in data set [2]; with His-sumo-Setdb1(2–115)) was “binds” throughout.

B3: 6Xhis-SUMO-Atf7IP(574–666) (domain or fragment, human, UniProt Q6VMQ6 574-666, looked up)
chain: EEEYEAEFQVKITAKGDINQKLQKVIQWLLEEKLCALQCAVFDKTLAELKTRVEKIECNKRHKTVLTELQAKIARLTKRFEAAKEDLKKRHEH
notes: Printed mass 23.2 kDa; not shown: His6, N-terminal, kept; SUMO, N-terminal, kept
For the molecule B3, the stoichiometry N (as a rule, the number of molecules, sites or subunits per partner or assembly) in the data set with MBP-Setdb1(2–115) is 2 Atf7IP per Setdb1. In data set [3], the binding result is recorded as “binds”.

B4: MBP-Atf7IP (574–666) C608S C612S (domain or fragment, human, UniProt Q6VMQ6 574-666, looked up)
chain: EEEYEAEFQVKITAKGDINQKLQKVIQWLLEEKLSALQSAVFDKTLAELKTRVEKIECNKRHKTVLTELQAKIARLTKRFEAAKEDLKKRHEH
notes: also called Atf7IP(C631); not shown: MBP, N-terminal, kept
For the molecule B4, the binding result in data set [4] was “binds”.

B5: 6Xhis-SUMO-Setdb1(Δα1- α2; residues 50–114) (domain or fragment, human, UniProt Q15047 50-114, looked up)
chain: KMDCVQQRKKQLAELETWVIQKESEVAHVDQLFDDASRAVTNCESLVKDFYSKLGLQYRDSSSED
notes: Setdb1, human, UniProt Q15047, residues 50–114 (helices α1 and α2 removed); source: E. coli (BL21DE3 or Rosetta2), purified (HisTrap, dialysis); not shown: His6, N-terminal, kept; SUMO, N-terminal, kept
Turning to B5, the “binding as percent of WT” value in data set [1] was ~30 % of WT.

The record behind these values is paper doi:10.1101/2024.12.23.630145, “Setdb1 and Atf7IP form a hetero-trimeric complex that blocks Setdb1 nuclear export” (bioRxiv, 2024).
